In assay [1] the target is T1, full-length beta-Catenin (Uniprot ID P35222) (Homo sapiens (Human), UniProt P35222 1-781).
T1 construct: also called bCat; B-Catenin
T1 sequence: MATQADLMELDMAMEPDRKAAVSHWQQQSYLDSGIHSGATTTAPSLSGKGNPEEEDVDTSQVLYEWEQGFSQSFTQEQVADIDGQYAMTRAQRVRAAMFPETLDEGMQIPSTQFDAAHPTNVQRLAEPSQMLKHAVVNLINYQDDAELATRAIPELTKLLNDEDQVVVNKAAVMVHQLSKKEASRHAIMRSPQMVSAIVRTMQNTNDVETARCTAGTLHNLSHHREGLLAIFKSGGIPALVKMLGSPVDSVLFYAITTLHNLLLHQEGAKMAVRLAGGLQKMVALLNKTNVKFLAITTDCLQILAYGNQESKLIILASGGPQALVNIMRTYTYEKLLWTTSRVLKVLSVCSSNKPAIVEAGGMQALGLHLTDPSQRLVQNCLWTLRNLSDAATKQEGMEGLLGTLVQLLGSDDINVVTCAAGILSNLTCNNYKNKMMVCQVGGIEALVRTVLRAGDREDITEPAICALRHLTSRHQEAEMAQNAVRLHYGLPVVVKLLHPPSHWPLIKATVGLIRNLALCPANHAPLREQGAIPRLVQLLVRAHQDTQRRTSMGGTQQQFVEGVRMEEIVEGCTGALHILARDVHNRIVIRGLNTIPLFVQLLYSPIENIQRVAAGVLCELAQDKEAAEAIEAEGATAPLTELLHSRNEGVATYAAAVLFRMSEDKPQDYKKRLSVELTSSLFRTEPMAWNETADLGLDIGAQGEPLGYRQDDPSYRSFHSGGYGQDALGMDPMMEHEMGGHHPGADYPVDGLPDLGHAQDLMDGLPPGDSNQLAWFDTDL
Description: fluorescence polarization competition; full-length beta-catenin, competitor 5FAM-TCF4(10-53) probe. In short, it runs like this: (§1)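 Incubate 60 minutes at 20° C. away from light, then read polarization in duplicate. Fit to 1:1 binding with hill slope.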
A general note: Polarisation of emitted light reports the rotation of a fluorescent probe.

In assay [2] the target is T2, full-length beta-Catenin (Uniprot ID P35222) (Homo sapiens (Human), UniProt P35222 1-781).
T2 construct: also called bCat; B-Catenin
T2 sequence: T1 sequence
Nature of the assay: fluorescence polarization competition; full-length beta-catenin with 5FAM-TCF4(10-53) probe as competitor. In short, it runs like this: as §1

The target in assay [3] is T3, full-length beta-Catenin (Uniprot ID P35222) (Homo sapiens (Human), UniProt P35222 2-781).
T3 construct: also called bCat; B-Catenin
T3 sequence: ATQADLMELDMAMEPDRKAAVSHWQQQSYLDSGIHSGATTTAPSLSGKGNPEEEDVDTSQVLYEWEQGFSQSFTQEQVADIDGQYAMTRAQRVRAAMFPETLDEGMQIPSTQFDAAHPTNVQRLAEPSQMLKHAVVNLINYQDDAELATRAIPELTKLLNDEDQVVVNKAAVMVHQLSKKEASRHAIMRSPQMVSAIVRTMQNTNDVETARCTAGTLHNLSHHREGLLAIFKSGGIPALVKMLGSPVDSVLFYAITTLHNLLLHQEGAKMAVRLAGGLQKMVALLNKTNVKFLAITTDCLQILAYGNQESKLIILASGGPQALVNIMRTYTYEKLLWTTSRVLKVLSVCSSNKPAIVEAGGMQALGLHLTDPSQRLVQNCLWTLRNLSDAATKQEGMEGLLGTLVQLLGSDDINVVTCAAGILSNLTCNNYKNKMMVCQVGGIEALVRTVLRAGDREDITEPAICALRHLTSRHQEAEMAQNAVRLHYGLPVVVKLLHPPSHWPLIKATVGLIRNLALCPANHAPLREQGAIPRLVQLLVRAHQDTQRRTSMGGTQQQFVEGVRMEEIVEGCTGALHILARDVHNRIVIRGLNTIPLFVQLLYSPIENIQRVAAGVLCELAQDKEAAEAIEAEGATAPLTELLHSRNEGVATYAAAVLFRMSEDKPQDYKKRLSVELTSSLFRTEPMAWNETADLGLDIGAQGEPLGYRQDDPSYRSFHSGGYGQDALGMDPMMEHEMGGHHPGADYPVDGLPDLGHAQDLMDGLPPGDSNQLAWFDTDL
Description: fluorescence polarization competition; 10 nM full-length beta-catenin + 10 nM 5FAM-TCF4(10-53) probe, peptide titrated. As to the method: The plate was incubated protected from light for 60 minutes at 20° C. prior to read. Reads were performed on a CLARIOstar plate reader (BMG Labtech) in duplicate, and data were fitted to a 1:1 binding model with hill slope using an in-house script. All provided concentrations are final concentrations.

Starred links: 1 amine or outer side, 2 acyl side, 3 side chain; linkers in the order of their positions; H or OH if unused. Positions of bridges follow the written chain, without caps; N, C: chain ends. Non-standard residues stand in square brackets, D forms with d. Primed or numbered codes have the meaning given here. PyrS3″ = (S)-3-amino-1-((hex-5-en-1-yloxy)carbonyl)pyrrolidine-3-carboxylic acid (stapling residue), C=CCCCCOC(=O)N1CC[C@@](N[*:1])(C(=O)[*:2])C1; SeN″ = (S)-5-(((allyloxy)carbonyl)(methyl)amino)-2-amino-2-methylpentanoic acid (stapling residue), C=CCOC(=O)N(C)CCC[C@](C)(N[*:1])C(=O)[*:2]; B5(16) = 2-amino-2-(pent-4-en-1-yl)hept-6-enoic acid = 2,2-bis(4-pentenyl)glycine (stitching residue), C=CCCCC(CCCC=C)(N[*:1])C(=O)[*:2]; B5(23) = 2-amino-2-(pent-4-en-1-yl)hept-6-enoic acid (2,2-bis(4-pentenyl)glycine), stitching residue, C=CCCCC(CCCC=C)(N[*:1])C(=O)[*:2]; B5(4) = 2,2-bis(4-pentenyl)glycine = 2-amino-2-(pent-4-en-1-yl)hept-6-enoic acid (stitching residue), C=CCCCC(CCCC=C)(N[*:1])C(=O)[*:2]; B5(21) = 2-amino-2-(pent-4-en-1-yl)hept-6-enoic acid, bis(4-pentenyl)glycine (stitching residue), C=CCCCC(CCCC=C)(N[*:1])C(=O)[*:2]; B5(6) = 2-amino-2-(pent-4-en-1-yl)hept-6-enoic acid (bis(4-pentenyl)glycine), stitching residue, C=CCCCC(CCCC=C)(N[*:1])C(=O)[*:2]; Phe(3-F) = N[C@@H](Cc1cccc(F)c1)C(=O)O; Phe(4-F) = N[C@@H](Cc1ccc(F)cc1)C(=O)O; Phe(2-F) = N[C@@H](Cc1ccccc1F)C(=O)O; Bta = N[C@@H](Cc1csc2ccccc12)C(=O)O; αAllylPro = C=CC[C@@]1(C(=O)O)CCCN1; S8 = C=CCCCCCC[C@](C)(N)C(=O)O; NMeS = CN[C@@H](CO)C(=O)O

B1: I-464 (peptide)
peptide: Ac-[αAllylPro]DA[B5(21)]DEAAFN[PyrS3″]F[Bta]Q-NH2
modifications: staple 1-4, 4-11; not fully specified; printed as Ac-PL3-Asp-Ala-B5-Asp-Glu-Ala-Ala-Phe-Asn-PyrS3-Phe-BztA-Gln-NH2
notes: Stapled peptide; later-eluting HPLC peak (staple isomer composition)
In assay [1], B1 came in with a concentration for half-maximal inhibition (IC50) of 57 nM.

B2: I-463 (peptide)
peptide: Ac-[αAllylPro]DA[B5(21)]DEAAFN[PyrS3″]F[Bta]Q-NH2
modifications: staple 1-4, 4-11; also: earlier-eluting HPLC staple isomer
notes: Stapled peptide; earlier-eluting HPLC peak (staple isomer composition)
Regarding B2, the IC50 in assay [1] was determined as 92 nM.

B3: I-469 (peptide)
peptide: Ac-[αAllylPro]DI[B5(6)]DDAAFN[S8]F[Bta]H-NH2
modifications: staple 1-4, 4-11; also: staple isomer composition: earlier-eluting HPLC peak
notes: as for B2
Regarding B3, in assay [1], the IC50 is 27 nM.

B4: I-467 (peptide)
peptide: Ac-[αAllylPro]DI[B5(6)]DDAAFN[S8]F[Bta]Q-NH2
modifications: staple 1-4, 4-11; also: staple isomer composition: earlier-eluting HPLC peak
notes: as for B2
Take B4: the IC50 in assay [1] came out at 44 nM.

B5: I-468 (peptide)
peptide: Ac-[αAllylPro]DI[B5(6)]DDAAFN[S8]F[Bta]Q-NH2
modifications: staple 1-4, 4-11; also: staple isomer composition: later-eluting HPLC peak
notes: as for B1
Molecule B5 had an IC50 in assay [1] of 27 nM.

B6: I-759 (peptide)
peptide: Ac-[αAllylPro]DL[B5(4)]DEAAFN[S8]F[Bta][NMeS]-NH2
modifications: staple 1-4, 4-11; also: earlier eluting HPLC peak (staple isomer)
notes: Stapled peptide; same description as I-760, earlier eluting HPLC peak (staple isomer composition); also called Ac-PL3-Asp-Leu-B5-Asp-Glu-Ala-Ala-Phe-Asn-S8-Phe-BztA-NMeS-NH2
Regarding B6, the IC50 in assay [2] came to 1530 nM.

B7: I-455 (peptide)
peptide: Ac-[αAllylPro]DA[B5(21)]DEAA[Phe(4-F)]N[S8]F[Bta]Q-NH2
modifications: staple 1-4, 4-11
notes: Stapled peptide composition
Take B7: the IC50 in assay [1] is 83.5 nM.

B8: I-453 (peptide)
peptide: Ac-[αAllylPro]DA[B5(21)]DEAA[Phe(2-F)]N[S8]F[Bta]Q-NH2
modifications: staple 1-4, 4-11
notes: Stapled peptide composition
In turn, B8 displayed an IC50 in assay [1] of 1550 nM.

B9: I-406 (peptide)
peptide: Ac-[αAllylPro]DA[B5(23)]DEAAFQ[S8]F[Bta]Q-NH2
modifications: staple 1-4, 4-11
notes: Stapled (stitched) peptide
In the case of B9, the EC50 in assay [3] was determined as 94 nM.

B10: I-399 (peptide)
peptide: XDAXDHAAFQXFXQ
modifications: not fully specified; as printed: Ac-PL3-Asp-Ala-B5-Asp-His-Ala-Ala-Phe-Gln-S8-3FF-BztA-Gln-NH2; N-terminal acetyl, C-terminal amide; staples PL3(1)-B5(4) and B5(4)-S8(11) by olefin metathesis
notes: Stapled (stitched) peptide
Regarding B10, the EC50 in assay [3] worked out at 2500 nM.

B11: I-398 (peptide)
peptide: Ac-[αAllylPro]DA[B5(16)]DHAAFV[SeN″][Phe(3-F)][Bta]Q-NH2
modifications: staple 1-4, 4-11; not fully specified; printed as Ac-PL3-Asp-Ala-B5-Asp-His-Ala-Ala-Phe-Val-SeN-3FF-BztA-Gln-NH2
notes: Stapled (stitched) peptide
B11: in assay [3], the EC50 turned out to be 2160 nM.

B12: I-397 (peptide)
peptide: XDAXDHAAFVXFXQ
modifications: not fully specified; as printed: Ac-PL3-Asp-Ala-B5-Asp-His-Ala-Ala-Phe-Val-S8-3FF-BztA-Gln-NH2; N-terminal acetyl, C-terminal amide; staples PL3(1)-B5(4) and B5(4)-S8(11) by olefin metathesis
notes: Stapled (stitched) peptide
For B12, the EC50 in assay [3] was 2230 nM.

B13: I-400 (peptide)
peptide: Ac-[αAllylPro]DA[B5(16)]DHAAFQ[SeN″][Phe(3-F)][Bta]Q-NH2
modifications: staple 1-4, 4-11; not fully specified; printed as Ac-PL3-Asp-Ala-B5-Asp-His-Ala-Ala-Phe-Gln-SeN-3FF-BztA-Gln-NH2
notes: Stapled (stitched) peptide
B13: the EC50 in assay [3] was 3590 nM.

A word on the IC50: it is the concentration needed to halve the response being measured. Low values mean greater potency in that assay, high ones weaker potency in that assay. As a reminder, the EC50 is the concentration needed to bring the measured effect to its halfway point.

These data come from patent US20240116985A1 (published 2024).
